# ± gives the standard error. For some of these results: Variants at the floor of the assay were thinned out.
# B1: glmS ribozyme (parent)
# chain: AUAAAAGCGCCAGAACUACAGAAAUGUAGUUGACGAGGAGGAGGUUUAUCGAAUUUUCGGCGGAUGCCUCCAAA
# Assays:
# Details in all cases: with glucosamine-6-phosphate
# glucosamine-6-phosphate [1] = variants of: B1; experiment: kcat; higher = faster cleavage; RNA array
# In short: (§1)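 The measurements used barcoded ribozyme variants on sequenced MiSeq chips, transcribed in situ by E. coli RNA polymerase and tracked at 37 °C with a hybridised Cy3 probe. Glucosamine-6-phosphate, 40 μM to 10 mM in HEPES/KCl/Mg(OAc)2 buffer, was flowed in while tiles were imaged over ~14 h. Baseline-normalised signals, also normalised to non-cleaving reference variants, gave per-tile medians that were fit to one- or two-exponential decays for kobs. kcat and KM resulted from weighted Michaelis–Menten fits across concentrations.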
# glucosamine-6-phosphate [2] = variants of: B1; experiment: self-cleavage kobs at 10000 uM GlcN6P; higher = faster cleavage; RNA array
# In short: as §1
# glucosamine-6-phosphate [3] = variants of: B1; experiment: self-cleavage kobs at 160 uM GlcN6P; higher = faster cleavage; RNA array
# In short: as §1
# glucosamine-6-phosphate [4] = variants of: B1; experiment: KM; higher = weaker cofactor use; RNA array
# In short: as §1
# glucosamine-6-phosphate [5] = variants of: B1; experiment: self-cleavage kobs at 640 uM GlcN6P; higher = faster cleavage; RNA array
# In short: as §1
# glucosamine-6-phosphate [6] = variants of: B1; experiment: self-cleavage kobs at 2500 uM GlcN6P; higher = faster cleavage; RNA array
# In short: as §1
# glucosamine-6-phosphate [7] = variants of: B1; experiment: self-cleavage kobs at 40 uM GlcN6P; higher = faster cleavage; RNA array
# In short: as §1
Variant,kcat (glucosamine-6-phosphate [1]),self-cleavage kobs at 10000 uM GlcN6P (glucosamine-6-phosphate [2]),self-cleavage kobs at 160 uM GlcN6P (glucosamine-6-phosphate [3]),KM (glucosamine-6-phosphate [4]),self-cleavage kobs at 640 uM GlcN6P (glucosamine-6-phosphate [5]),self-cleavage kobs at 2500 uM GlcN6P (glucosamine-6-phosphate [6]),self-cleavage kobs at 40 uM GlcN6P (glucosamine-6-phosphate [7])
A12G A14U G32U G60A G66U,< 1e-05 s⁻¹,< 1e-05 s⁻¹,,,,,
G63A U69A,4.23e-05 ± 1.2e-05 s⁻¹,,5.41e-05 ± 2e-05 s⁻¹,,,,
G13C G32C,0.000728 ± 0.00016 s⁻¹,0.000534 ± 7.8e-05 s⁻¹,4.58e-05 ± 1.6e-05 s⁻¹,3050 ± 1200 µM,0.000109 ± 2.2e-05 s⁻¹,0.000408 ± 7e-05 s⁻¹,
G13U C58U C67G,2.59e-05 ± 5.8e-06 s⁻¹,,,,,,
U31C A52G,0.000531 ± 5.8e-05 s⁻¹,0.000358 ± 3.4e-05 s⁻¹,2.13e-05 ± 8.7e-06 s⁻¹,4640 ± 810 µM,6.14e-05 ± 7.4e-06 s⁻¹,0.000196 ± 2.2e-05 s⁻¹,
G66C C68U,0.00021 ± 1.1e-05 s⁻¹,0.000173 ± 2.3e-05 s⁻¹,,1890 ± 220 µM,5.11e-05 ± 1e-05 s⁻¹,0.000132 ± 2.7e-05 s⁻¹,
A6C A12C U57G,1.28e-05 ± 2.4e-06 s⁻¹,< 1e-05 s⁻¹,,,,,
U45C U54A,0.00783 ± 0.0023 s⁻¹,0.00436 ± 0.001 s⁻¹,0.000161 ± 3.3e-05 s⁻¹,6680 ± 2400 µM,0.00072 ± 0.00011 s⁻¹,0.00255 ± 0.00053 s⁻¹,
C16G C67A,0.00104 ± 0.00042 s⁻¹,0.000956 ± 0.00019 s⁻¹,,,0.000169 ± 6.1e-05 s⁻¹,0.000618 ± 0.00021 s⁻¹,3.35e-05 ± 7e-06 s⁻¹
U55G G60C,< 1e-05 s⁻¹,,< 1e-05 s⁻¹,,,,
C11U U56A,0.00124 ± 0.00023 s⁻¹,0.00125 ± 0.00016 s⁻¹,0.000103 ± 1.4e-05 s⁻¹,1910 ± 580 µM,0.000294 ± 4.5e-05 s⁻¹,0.000621 ± 7.2e-05 s⁻¹,3.72e-05 ± 1e-05 s⁻¹
A15U U46C,0.000336 ± 2.6e-05 s⁻¹,0.000288 ± 2.9e-05 s⁻¹,2.98e-05 ± 1.3e-05 s⁻¹,1290 ± 210 µM,0.000111 ± 1.1e-05 s⁻¹,0.000249 ± 3.3e-05 s⁻¹,
A15C A64G,0.00792 ± 0.0013 s⁻¹,0.00614 ± 0.00072 s⁻¹,0.00037 ± 6.2e-05 s⁻¹,2980 ± 660 µM,0.00113 ± 0.00024 s⁻¹,0.00387 ± 0.00068 s⁻¹,0.000125 ± 1.6e-05 s⁻¹
G29U G41A,0.000207 ± 3.7e-05 s⁻¹,0.000164 ± 4e-05 s⁻¹,,1480 ± 620 µM,5.62e-05 ± 1.8e-05 s⁻¹,0.000155 ± 3.1e-05 s⁻¹,< 1e-05 s⁻¹
A14C A53U,0.00451 ± 0.00085 s⁻¹,0.0035 ± 0.00029 s⁻¹,0.000184 ± 2.7e-05 s⁻¹,2930 ± 790 µM,0.000737 ± 0.00012 s⁻¹,0.00214 ± 0.00026 s⁻¹,7.8e-05 ± 7.6e-06 s⁻¹
A39G G66U,0.00533 ± 0.00016 s⁻¹,0.00451 ± 0.00097 s⁻¹,,1960 ± 79 µM,0.00133 ± 0.00029 s⁻¹,0.00285 ± 0.0009 s⁻¹,0.000107 ± 1.9e-05 s⁻¹
G13U C16A,0.000283 ± 1.2e-05 s⁻¹,0.000198 ± 2.6e-05 s⁻¹,,4340 ± 370 µM,3.79e-05 ± 1.2e-05 s⁻¹,0.0001 ± 2.2e-05 s⁻¹,
A14U U31C C34G A42G U47A G51A C71A,< 1e-05 s⁻¹,< 1e-05 s⁻¹,,,,,

Variant,kcat (glucosamine-6-phosphate [1]),self-cleavage kobs at 10000 uM GlcN6P (glucosamine-6-phosphate [2]),self-cleavage kobs at 160 uM GlcN6P (glucosamine-6-phosphate [3]),KM (glucosamine-6-phosphate [4]),self-cleavage kobs at 640 uM GlcN6P (glucosamine-6-phosphate [5]),self-cleavage kobs at 2500 uM GlcN6P (glucosamine-6-phosphate [6]),self-cleavage kobs at 40 uM GlcN6P (glucosamine-6-phosphate [7])
G51A U54C,< 1e-05 s⁻¹,,,,,,
A12G U65G,0.000107 ± 1.4e-05 s⁻¹,8.79e-05 ± 7.1e-06 s⁻¹,,2380 ± 960 µM,3.32e-05 ± 9e-06 s⁻¹,4.72e-05 ± 8.3e-06 s⁻¹,
A14U C58A,0.000695 ± 4.9e-05 s⁻¹,0.000594 ± 7.5e-05 s⁻¹,5.03e-05 ± 1.2e-05 s⁻¹,2220 ± 300 µM,0.000162 ± 3.2e-05 s⁻¹,0.000346 ± 4.3e-05 s⁻¹,
G37U C61U,< 1e-05 s⁻¹,,,,,,
A53C C70G,8.19e-05 ± 3.8e-06 s⁻¹,7.97e-05 ± 7.3e-06 s⁻¹,,438 ± 110 µM,5.26e-05 ± 9.1e-06 s⁻¹,6.51e-05 ± 9.9e-06 s⁻¹,
C16A U56A,0.0016 ± 0.00026 s⁻¹,0.00131 ± 0.0002 s⁻¹,9.31e-05 ± 3e-05 s⁻¹,3180 ± 890 µM,0.000261 ± 7.2e-05 s⁻¹,0.000618 ± 0.00011 s⁻¹,2.51e-05 ± 9.6e-06 s⁻¹
A36U G59A G63U C71U,< 1e-05 s⁻¹,,,,,< 1e-05 s⁻¹,
G37C U47G U69G,7.04e-05 ± 2.8e-05 s⁻¹,,7.9e-05 ± 2.3e-05 s⁻¹,,5.97e-05 ± 2e-05 s⁻¹,0.000138 ± 4.1e-05 s⁻¹,
G62U C70G,1.57e-05 ± 2.7e-06 s⁻¹,,,,,,
A53U U57C,0.000173 ± 5.9e-06 s⁻¹,0.000151 ± 1.8e-05 s⁻¹,,1360 ± 210 µM,,0.000115 ± 2.1e-05 s⁻¹,
A14G U46C,0.0067 ± 0.0025 s⁻¹,0.00545 ± 0.002 s⁻¹,,,0.00207 ± 0.00084 s⁻¹,0.00744 ± 0.0013 s⁻¹,0.000504 ± 0.00011 s⁻¹
G35C A52G,< 1e-05 s⁻¹,< 1e-05 s⁻¹,< 1e-05 s⁻¹,,< 1e-05 s⁻¹,,
G7U G51A G62A C70U,1.17e-05 ± 2.6e-06 s⁻¹,,,,,,
G38C C67A,< 1e-05 s⁻¹,,< 1e-05 s⁻¹,,,,< 1e-05 s⁻¹
C11U,0.00338 ± 0.00074 s⁻¹,0.00293 ± 9.8e-05 s⁻¹,0.000216 ± 7.8e-06 s⁻¹,1800 ± 450 µM,0.000837 ± 8.1e-05 s⁻¹,0.00508 ± 0.0016 s⁻¹,8.01e-05 ± 1.4e-06 s⁻¹
A15C C16A G37U C70U C71G,1.25e-05 ± 2.5e-06 s⁻¹,,,,,,
U31C U45C,0.0005 ± 0.0001 s⁻¹,0.000327 ± 4.5e-05 s⁻¹,,4690 ± 1600 µM,5.17e-05 ± 1.1e-05 s⁻¹,0.000213 ± 3.5e-05 s⁻¹,

# — the supplement of paper PMC7125110
